Consider four molecules from paper PMC10180351, “Modulating Substrate Specificity of Rhizobium sp. Histamine Dehydrogenase through Protein Engineering for Food Quality Applications” (Molecules, 2023).

Positions count from the first letter of the chain named. Names and notes keep the numbering of the source.

In data set [1] the target is T1, Rhizobium sp. Histamine Dehydrogenase (Rsp HDH) (Rhizobium sp. 4-9, UniProt Q60I59).
T1 construct: full length (693 aa native), synthetic E. coli-optimised gene in pET28a(+), C-terminal 6xHis tag kept; E. coli BL21 Gold (DE3); IMAC purified; homodimer with 6-S-Cys-FMN, [4Fe-4S], ADP
T1 sequence (Q60I59 1-693): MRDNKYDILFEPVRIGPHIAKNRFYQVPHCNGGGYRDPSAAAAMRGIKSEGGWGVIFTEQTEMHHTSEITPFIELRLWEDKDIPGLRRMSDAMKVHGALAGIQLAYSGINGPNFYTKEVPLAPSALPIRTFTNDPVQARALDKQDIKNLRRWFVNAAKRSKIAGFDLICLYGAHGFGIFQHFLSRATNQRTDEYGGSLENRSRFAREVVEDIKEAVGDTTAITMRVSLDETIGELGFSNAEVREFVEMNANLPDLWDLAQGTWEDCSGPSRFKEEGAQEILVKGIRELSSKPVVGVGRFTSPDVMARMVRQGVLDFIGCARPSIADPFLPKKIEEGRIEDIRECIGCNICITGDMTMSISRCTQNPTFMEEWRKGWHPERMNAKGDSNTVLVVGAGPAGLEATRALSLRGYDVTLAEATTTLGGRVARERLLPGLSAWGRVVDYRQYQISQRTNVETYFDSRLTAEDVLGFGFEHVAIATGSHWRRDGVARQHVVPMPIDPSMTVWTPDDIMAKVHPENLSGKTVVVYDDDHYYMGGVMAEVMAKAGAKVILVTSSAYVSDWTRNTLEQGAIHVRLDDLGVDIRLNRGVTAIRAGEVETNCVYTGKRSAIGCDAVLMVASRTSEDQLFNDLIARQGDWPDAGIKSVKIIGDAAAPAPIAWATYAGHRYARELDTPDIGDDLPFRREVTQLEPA
As to the kind of experiment: WST-8 / 1-methoxy PMS colorimetric initial rate, […] nm, substrate inhibition fit. The format is biochemical. As to conditions: substrate inhibition by histamine itself; 1-methoxy PMS electron carrier; glycine buffer pH 9.0, 37 °C. From the text:
(§1) Histamine Dehydrogenase (Rsp HDH)

Substrate in data set [2]: NCCc1c[nH]cn1
Description: purified protein. It counts as biochemical, Rhizobium sp. 4-9. The settings on record: 1-methoxy PMS electron carrier, glycine buffer pH 9.0, 37 °C.
Description: as §1

Substrate in data set [3]: N=C(N)NCCCCN
As to the kind of experiment: purified protein. It counts as biochemical, Rhizobium sp. 4-9. As to conditions: 1-methoxy PMS electron carrier, glycine buffer pH 9.0, 37 °C.
Description: as §1

With `NCCc1c[nH]cn1` [histamine], the “Observed Ki” value in data set [1] is 2059.0 µM.

B1: Rhizobium sp. Histamine Dehydrogenase (Rsp HDH) (Rhizobium sp. 4-9) (protein)
chain: T1 sequence (Q60I59 1-693)
notes: full length (693 aa native), synthetic E. coli-optimised gene in pET28a(+), C-terminal 6xHis tag kept; E. coli BL21 Gold (DE3); IMAC purified; homodimer with 6-S-Cys-FMN, [4Fe-4S], ADP
Regarding B1, the Km was 38.24 µM in data set [2] and 130.1 µM in data set [3].

B2: Rhizobium sp. Histamine Dehydrogenase (Rsp HDH) (Rhizobium sp. 4-9; N110V) (protein)
chain: T1 sequence (Q60I59 1-693) with N110V
notes: as for B1
Consider B2, for which the Km was found to be 159.5 µM in data set [2] and 170.1 µM in data set [3].

B3: Rhizobium sp. Histamine Dehydrogenase (Rsp HDH) (Rhizobium sp. 4-9; F72T) (protein)
chain: T1 sequence (Q60I59 1-693) with F72T
notes: as for B1
Take B3: the Michaelis-Menten constant (Km) in data set [2] came to 194.6 µM; in data set [3], 112.9 µM.
